These results are taken from the Human Domainome abundance scans (Beltran et al. 2025).

± gives the uncertainty stated by the source.

The labels stand for the following.
B1: Steroid hormone receptor ERR2, residues 100 to 176; numbered along this chain, O95718 (parent)
chain: KRLCLVCGDIASGYHYGVASCEACKAFFKRTIQGNIEYSCPATNECEITKRRRKSCQACRFMKCLKVGMLKEGVRLD

The series covers variants of B1. As to the kind of experiment: abundance fitness (aPCA) (normalised: wild type 0, dead -1); higher = more abundant; growth selection in yeast, the domain comes from the species named. Particulars: Homo sapiens.
As to KRLCLVCGDIASGYHYGVASCEACKAFFKRTIQGNIEYSCPATNECECTKRRRKSCQACRFMKCLKVGMLKEGVRLD [I48C], the abundance fitness is -0.312 ± 0.14. As for KRLCLVCGDIASGYHYGVASCEACKAFFKRTIQGNIEYSCPATNECEITVRRRKSCQACRFMKCLKVGMLKEGVRLD [K50V], the figure is 0.118 ± 0.062; as for KRLCLVCGDIASGYHYGVASCEACKAFFKRTIQGNIEYSCPATNECEITARRRKSCQACRFMKCLKVGMLKEGVRLD [K50A], 0.126 ± 0.059; as for KRLCLVCGDIASGYHYGVASCEACKAFFKRTIQGNIEYSCPATNECEITYRRRKSCQACRFMKCLKVGMLKEGVRLD [K50Y], -0.128 ± 0.084. For the variant KRLCLVCGDIASGYHYGVASCEACKAFFKRTIQGNIEYSCPATNECEITQRRRKSCQACRFMKCLKVGMLKEGVRLD [K50Q], the abundance fitness came out at 0.142 ± 0.085.

Consider KRLCLVCGDIASGYHYGVASCEACKAFFKRTIQGNIEYSCPATNECEITDRRRKSCQACRFMKCLKVGMLKEGVRLD [K50D], for which the abundance fitness was -0.055 ± 0.093. Next, KRLCLVCGDIASGYHYGVASCEACKAFFKRTIQGNIEYSCPATNECEITTRRRKSCQACRFMKCLKVGMLKEGVRLD [K50T]: 0.019 ± 0.059; KRLCLVCGDIASGYHYGVASCEACKAFFKRTIQGNIEYSCPATNECEITMRRRKSCQACRFMKCLKVGMLKEGVRLD [K50M]: 0.098 ± 0.1. As for KRLCLVCGDIASGYHYGVASCEACKAFFKRTIQGNIEYSCPATNECEITNRRRKSCQACRFMKCLKVGMLKEGVRLD [K50N], the abundance fitness came to 0.071 ± 0.088. As to KRLCLVCGDIASGYHYGVASCEACKAFFKRTIQGNIEYSCPATNECEITGRRRKSCQACRFMKCLKVGMLKEGVRLD [K50G], the abundance fitness is -0.102 ± 0.091. In the case of KRLCLVCGDIASGYHYGVASCEACKAFFKRTIQGNIEYSCPATNECEITFRRRKSCQACRFMKCLKVGMLKEGVRLD [K50F], the abundance fitness is 0.047 ± 0.07. For the variant KRLCLVCGDIASGYHYGVASCEACKAFFKRTIQGNIEYSCPATNECEITLRRRKSCQACRFMKCLKVGMLKEGVRLD [K50L], the abundance fitness is -0.088 ± 0.063.

For KRLCLVCGDIASGYHYGVASCEACKAFFKRTIQGNIEYSCPATNECEITIRRRKSCQACRFMKCLKVGMLKEGVRLD [K50I], the abundance fitness came to 0.112 ± 0.065. Next, KRLCLVCGDIASGYHYGVASCEACKAFFKRTIQGNIEYSCPATNECEITERRRKSCQACRFMKCLKVGMLKEGVRLD [K50E]: 0.224 ± 0.088. As for KRLCLVCGDIASGYHYGVASCEACKAFFKRTIQGNIEYSCPATNECEITCRRRKSCQACRFMKCLKVGMLKEGVRLD [K50C], the figure is -0.51 ± 0.2; as for KRLCLVCGDIASGYHYGVASCEACKAFFKRTIQGNIEYSCPATNECEIFKRRRKSCQACRFMKCLKVGMLKEGVRLD [T49F], -0.254 ± 0.17. Next, KRLCLVCGDIASGYHYGVASCEACKAFFKRTIQGNIEYSCPATNECEIAKRRRKSCQACRFMKCLKVGMLKEGVRLD [T49A]: 0.189 ± 0.055.

For KRLCLVCGDIASGYHYGVASCEACKAFFKRTIQGNIEYSCPATNECEIGKRRRKSCQACRFMKCLKVGMLKEGVRLD [T49G], the abundance fitness was -0.041 ± 0.059. For KRLCLVCGDIASGYHYGVASCEACKAFFKRTIQGNIEYSCPATNECEILKRRRKSCQACRFMKCLKVGMLKEGVRLD [T49L], the abundance fitness is -0.117 ± 0.087. Next, KRLCLVCGDIASGYHYGVASCEACKAFFKRTIQGNIEYSCPATNECEIRKRRRKSCQACRFMKCLKVGMLKEGVRLD [T49R]: -0.2 ± 0.062; KRLCLVCGDIASGYHYGVASCEACKAFFKRTIQGNIEYSCPATNECEIVKRRRKSCQACRFMKCLKVGMLKEGVRLD [T49V]: -0.138 ± 0.073. As for KRLCLVCGDIASGYHYGVASCEACKAFFKRTIQGNIEYSCPATNECEIDKRRRKSCQACRFMKCLKVGMLKEGVRLD [T49D], the figure is 0.118 ± 0.11.

Consider KRLCLVCGDIASGYHYGVASCEACKAFFKRTIQGNIEYSCPATNECEINKRRRKSCQACRFMKCLKVGMLKEGVRLD [T49N], for which the abundance fitness was determined as 0.015 ± 0.11. As for KRLCLVCGDIASGYHYGVASCEACKAFFKRTIQGNIEYSCPATNECEISKRRRKSCQACRFMKCLKVGMLKEGVRLD [T49S], the figure is -0.164 ± 0.071. Next, KRLCLVCGDIASGYHYGVASCEACKAFFKRTIQGNIEYSCPATNECEIHKRRRKSCQACRFMKCLKVGMLKEGVRLD [T49H]: -0.523 ± 0.17.

On to KRLCLVCGDIASGYHYGVASCEACKAFFKRTIQGNIEYSCPATNECEIEKRRRKSCQACRFMKCLKVGMLKEGVRLD [T49E], for which the abundance fitness was -0.003 ± 0.095. KRLCLVCGDIASGYHYGVASCEACKAFFKRTIQGNIEYSCPATNECEICKRRRKSCQACRFMKCLKVGMLKEGVRLD [T49C]: the abundance fitness is -0.948 ± 0.31. As for KRLCLVCGDIASGYHYGVASCEACKAFFKRTIQGNIEYSCPATNECEIKKRRRKSCQACRFMKCLKVGMLKEGVRLD [T49K], the figure is -0.035 ± 0.099; as for KRLCLVCGDIASGYHYGVASCEACKAFFKRTIQGNIEYSCPATNECEIIKRRRKSCQACRFMKCLKVGMLKEGVRLD [T49I], -0.281 ± 0.12; as for KRLCLVCGDIASGYHYGVASCEACKAFFKRTIQGNIEYSCPATNECEIPKRRRKSCQACRFMKCLKVGMLKEGVRLD [T49P], -0.223 ± 0.088. Next, KRLCLVCGDIASGYHYGVASCEACKAFFKRTIQGNIEYSCPATNECEIWKRRRKSCQACRFMKCLKVGMLKEGVRLD [T49W]: -0.199 ± 0.092; KRLCLVCGDIASGYHYGVASCEACKAFFKRTIQGNIEYSCPATNECEIQKRRRKSCQACRFMKCLKVGMLKEGVRLD [T49Q]: -0.332 ± 0.15; KRLCLVCGDIASGYHYGVASCEACKAFFKRTIQGNIEYSCPATNECEITKARRKSCQACRFMKCLKVGMLKEGVRLD [R51A]: 0.002 ± 0.072. As for KRLCLVCGDIASGYHYGVASCEACKAFFKRTIQGNIEYSCPATNECEITKCRRKSCQACRFMKCLKVGMLKEGVRLD [R51C], the figure is -0.803 ± 0.32; as for KRLCLVCGDIASGYHYGVASCEACKAFFKRTIQGNIEYSCPATNECEITKERRKSCQACRFMKCLKVGMLKEGVRLD [R51E], 0.152 ± 0.12.

As for KRLCLVCGDIASGYHYGVASCEACKAFFKRTIQGNIEYSCPATNECEITKDRRKSCQACRFMKCLKVGMLKEGVRLD [R51D], the abundance fitness was -0.084 ± 0.13.
